Assays:
[1] = target: T1, His-tagged GLI1 fragment, amino acids 1-433
T1 chain: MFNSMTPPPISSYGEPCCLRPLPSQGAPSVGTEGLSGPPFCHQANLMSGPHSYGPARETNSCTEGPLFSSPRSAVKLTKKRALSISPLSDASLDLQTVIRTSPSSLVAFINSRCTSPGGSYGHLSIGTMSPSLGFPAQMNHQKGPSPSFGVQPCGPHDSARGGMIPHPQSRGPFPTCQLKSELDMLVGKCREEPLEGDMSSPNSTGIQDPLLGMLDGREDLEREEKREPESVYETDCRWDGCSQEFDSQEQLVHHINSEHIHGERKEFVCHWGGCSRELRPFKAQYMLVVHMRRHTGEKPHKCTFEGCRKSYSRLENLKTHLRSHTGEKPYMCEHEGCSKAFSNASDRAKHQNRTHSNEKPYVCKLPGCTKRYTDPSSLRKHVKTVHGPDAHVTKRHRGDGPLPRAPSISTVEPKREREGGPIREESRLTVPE

[2] = target: T2, His-tagged GLI1 fragment, amino acids 426-754
T2 chain: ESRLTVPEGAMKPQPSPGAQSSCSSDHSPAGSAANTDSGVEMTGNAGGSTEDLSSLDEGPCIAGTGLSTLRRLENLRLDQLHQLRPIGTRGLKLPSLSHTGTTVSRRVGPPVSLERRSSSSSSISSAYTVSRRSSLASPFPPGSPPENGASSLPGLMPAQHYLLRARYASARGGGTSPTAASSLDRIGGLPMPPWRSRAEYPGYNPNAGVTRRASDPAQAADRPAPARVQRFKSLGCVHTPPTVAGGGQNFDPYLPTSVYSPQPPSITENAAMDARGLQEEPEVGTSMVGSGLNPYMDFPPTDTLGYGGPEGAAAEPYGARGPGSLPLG

FLAG-tagged GLI3, P10071 = target: T3, FLAG-tagged GLI3, P10071
T3 chain: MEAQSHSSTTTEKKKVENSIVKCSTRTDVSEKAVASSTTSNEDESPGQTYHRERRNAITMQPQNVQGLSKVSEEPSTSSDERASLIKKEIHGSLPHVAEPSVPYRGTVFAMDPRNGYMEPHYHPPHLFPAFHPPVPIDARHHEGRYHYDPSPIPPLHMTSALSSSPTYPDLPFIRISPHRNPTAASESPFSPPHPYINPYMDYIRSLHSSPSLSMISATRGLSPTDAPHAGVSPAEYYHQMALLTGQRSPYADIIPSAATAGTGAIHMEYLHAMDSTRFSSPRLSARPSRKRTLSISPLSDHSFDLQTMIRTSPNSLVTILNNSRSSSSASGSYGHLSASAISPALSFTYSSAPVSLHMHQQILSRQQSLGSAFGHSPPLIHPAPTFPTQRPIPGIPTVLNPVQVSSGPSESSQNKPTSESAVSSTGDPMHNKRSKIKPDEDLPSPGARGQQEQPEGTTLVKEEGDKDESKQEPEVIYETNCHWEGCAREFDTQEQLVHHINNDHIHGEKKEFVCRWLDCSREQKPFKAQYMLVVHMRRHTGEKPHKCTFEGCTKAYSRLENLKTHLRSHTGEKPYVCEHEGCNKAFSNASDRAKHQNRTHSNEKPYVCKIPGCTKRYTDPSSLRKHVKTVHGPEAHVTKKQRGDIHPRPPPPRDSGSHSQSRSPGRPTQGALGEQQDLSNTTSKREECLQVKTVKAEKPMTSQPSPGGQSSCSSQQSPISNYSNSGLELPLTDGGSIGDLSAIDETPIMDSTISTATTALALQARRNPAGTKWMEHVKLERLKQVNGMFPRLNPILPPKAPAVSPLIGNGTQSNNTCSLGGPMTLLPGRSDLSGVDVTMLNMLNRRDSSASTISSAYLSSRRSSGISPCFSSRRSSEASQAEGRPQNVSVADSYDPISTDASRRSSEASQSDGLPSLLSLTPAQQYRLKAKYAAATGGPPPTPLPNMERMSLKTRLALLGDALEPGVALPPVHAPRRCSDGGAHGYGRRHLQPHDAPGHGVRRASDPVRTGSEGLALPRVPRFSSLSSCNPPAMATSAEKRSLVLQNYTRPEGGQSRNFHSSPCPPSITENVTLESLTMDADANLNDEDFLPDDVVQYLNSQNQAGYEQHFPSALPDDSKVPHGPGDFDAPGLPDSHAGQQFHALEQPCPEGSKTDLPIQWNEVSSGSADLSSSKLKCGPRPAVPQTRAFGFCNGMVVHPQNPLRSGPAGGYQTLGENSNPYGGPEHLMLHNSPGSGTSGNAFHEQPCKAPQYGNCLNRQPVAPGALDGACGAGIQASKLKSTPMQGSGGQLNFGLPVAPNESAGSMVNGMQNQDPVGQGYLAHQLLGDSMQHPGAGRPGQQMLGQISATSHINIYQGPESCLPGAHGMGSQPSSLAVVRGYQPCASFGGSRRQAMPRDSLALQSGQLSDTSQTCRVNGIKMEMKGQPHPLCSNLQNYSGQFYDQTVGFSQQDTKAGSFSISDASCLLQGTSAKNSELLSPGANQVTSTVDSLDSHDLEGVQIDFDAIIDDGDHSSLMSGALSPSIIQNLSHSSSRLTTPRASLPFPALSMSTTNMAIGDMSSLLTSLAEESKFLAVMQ

B1: FLAG-tagged wild-type ULK3 (human serine/threonine kinase ULK3) (protein)
chain: MAGPGWGPPRLDGFILTERLGSGTYATVYKAYAKKDTREVVAIKCVAKKSLNKASVENLLTEIEILKGIRHPHIVQLKDFQWDSDNIYLIMEFCAGGDLSRFIHTRRILPEKVARVFMQQLASALQFLHERNISHLDLKPQNILLSSLEKPHLKLADFGFAQHMSPWDEKHVLRGSPLYMAPEMVCQRQYDARVDLWSMGVILYEALFGQPPFASRSFSELEEKIRSNRVIELPLRPLLSRDCRDLLQRLLERDPSRRISFQDFFAHPWVDLEHMPSGESLGRATALVVQAVKKDQEGDSAAALSLYCKALDFFVPALHYEVDAQRKEAIKAKVGQYVSRAEELKAIVSSSNQALLRQGTSARDLLREMARDKPRLLAALEVASAAMAKEEAAGGEQDALDLYQHSLGELLLLLAAEPPGRRRELLHTEVQNLMARAEYLKEQVKMRESRWEADTLDKEGLSESVRSSCTLQ
[1]
  in vitro kinase assay, phosphorylation of a His-tagged GLI1 fragment: Two of them-GLI1(1-433) and GLI1(726-1106)-were phosphorylated by ULK3
[2]
  in vitro kinase assay, phosphorylation of a His-tagged GLI1 fragment: Central part of GLI1 (amino acids 426-754) was not phosphorylated by ULK3
FLAG-tagged GLI3, P10071
  in vitro kinase assay, phosphorylation signal (32P autoradiography): GLI1 and GLI3 were also phosphorylated by ULK3, but with significantly lower intensity as compared to GLI2

From patent US20130040894A1, “INHIBITION OR ACTIVATION OF SERINE/THREONINE ULK3 KINASE ACTIVITY” (TALLINN UNIVERSITY OF TECHNOLOGY, priority 2009, published 2013)
